Experiments:
[1] = target: HLA A*0201 on the surface of TAP deficient T2 cells (human (endogenous in T2 cells)); assay: flow cytometry on cells; T2-binding assay: TAP deficient T2 cells with peptide at 100, 50, 10 and 1 μM in AIM-V, 10 min 37 °C, room temperature overnight, 2 h 37 °C; surface HLA A*0201 stained with anti-human HLA A*0201:RPE; MFI fitted (log(agonist) vs. response) to logEC50
[2] = target: soluble recombinant HLA A*0201 (α chain tagged with a biotinylation sequence, with β2m); assay: SPR; real time pMHC stability assay, BIAcore 3000, CM5 chip; ~500 RU of biotinylated refolded pMHCI immobilised on streptavidin; flow 10 μl/min for 15,000 s; Langmuir dissociation analysis converted to half-life

LogEC50 [1] [M] | half-life [2] [h] | koff [2] [s⁻¹] | Substance
-3.53 | 8.9 | 2.2e-05 | NY-ESO-1 157-165 peptide …
-4.3 | 16.9 | 1.1e-05 | PSA 178-187 peptide …

From article PMC3032881
